Measurements taken from US20230037911A1 (SHANGHAI HENLIUS BIOTECH, published 2023).
Where a chain is given by its changes, count along the chain named.

T1: recombinant human TIGIT extra cellular domain (ECD) protein (human, UniProt Q495A1 22-138)
T1 construct: Purchased protein; it begins with the signal peptide; also called h-TIGIT ECD; human TIGIT ECD
T1 sequence: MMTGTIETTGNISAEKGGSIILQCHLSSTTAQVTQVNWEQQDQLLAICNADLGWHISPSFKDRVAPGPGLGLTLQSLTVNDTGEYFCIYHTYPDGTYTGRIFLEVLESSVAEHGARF

T2: human TIGIT stably expressed on cells (Jurkat; 293T) (human, UniProt Q495A1 22-244)
T2 construct: the expression vector's insert is not described further; also called h-TIGIT; human TIGIT transfected Jurkat cells
T2 sequence: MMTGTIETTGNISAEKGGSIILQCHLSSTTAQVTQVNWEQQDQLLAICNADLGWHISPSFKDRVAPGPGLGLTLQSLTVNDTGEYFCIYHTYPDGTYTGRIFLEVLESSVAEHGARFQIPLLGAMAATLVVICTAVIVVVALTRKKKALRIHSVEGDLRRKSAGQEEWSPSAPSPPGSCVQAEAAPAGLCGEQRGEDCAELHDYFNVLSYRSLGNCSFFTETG

B1: 3G7 VHH (VHH)
VHH: QVQLVESGGGLVQAGDSLRLSCEASGRTLSTYTMGWFRRAPGKEREFVGLAWPSPSTYVVDSVKGRFTISRDNAKNTIYLQMNSLKPEDTAIYYCAADYKSLTQSWLNAALDYWGQGTQVTVSS
notes: VHH in bacterial supernatant
B2: 13H11 VHH (VHH)
VHH: QVQLVESGGGLVQAGGSLRLSCAASGLTFSMYAMGWFRQGPGKERESVAAISSDGRFTYYAASVKGRFTISKDNAKSAAFLQMNSLKPEDTAVYYCAARDSGSGYYSRAQWYDYWGQGTQVTVSS
notes: VHH in bacterial supernatant
B3: 1G1 VHH (VHH)
VHH: B2 VHH with G16D, A23V, L27P, T28S, M31S, A33P, Q120L
notes: VHH in bacterial supernatant
B4: 4A11 VHH (VHH)
VHH: B1 VHH with Q3K, V5E, L11E, V12A, A14P, D16G, E23T, T28P, L29F, T31N
notes: VHH in bacterial supernatant
B5: 4H9 VHH (VHH)
VHH: QVQLVESGGGAVQAGGSLRLSCTASGPIARSRSTGMGWFRQGPGKERESVAAISSDGRFTYYAASVKGRFTISKDNAKSAAFLQMNSLKPEDTAVYYCAARDSGSGYYSRAQWYDYWGQGTQVTVSS
notes: VHH in bacterial supernatant
B6: 4C5 VHH (VHH)
VHH: QVQLVDSGGGLVQAGGSLRLSCAVSGRSVSTYFVGWFRQAPGKEREFVAAIDRGSTVTRYDDSVKGRFTISRDNAKDTVYLQMNSLKPEDTAVYYCAAKAITRNFIATNDYDYWGQGTQVTVSS
notes: VHH in bacterial supernatant
B7: 4D11 VHH (VHH)
VHH: QVQLQESGGGLVQPGGSLRLSCAASGSISSINAMGWYRLAPGKHREFVADITNSGSTNYAASVKGRFNISRDNAKDTVYLQMNSLKFEDTAVYYCTARRSTWYISSGRGTQVTVSS
notes: VHH in bacterial supernatant
B8: 4C6 VHH (VHH)
VHH: QVQLVESGGGLVQAGGSLRLACAASGRTFSSYPMGWFRQGPGKERESVAAISSDGRFTYYAASVKGRFTISKDNAKSAAFLQMNSLKPEDTAVYRCAVDPTGWGTIEADFRSWGQGTQVTVSS
notes: VHH in bacterial supernatant
B9: 4E5 VHH (VHH)
VHH: QVQLVDSGGGVVEVGASLTLSCETSGLTSSDIAVGWFRQGPGKERESVAAISSDGRFTYYAASVKGRFTISKDNAKSAAFLQMNSLKPEDTAVYYCAARDSGSGYYSRAQWYDYWGQGTQVTVSS
notes: VHH in bacterial supernatant
B10: 4H6 VHH (VHH)
VHH: QVQLVESGGGLATAGASLILSCAASGTIFRLNRMGWFRQAPGKERERVAATIWSGRRTHYADSVKGRFTISTDNAKKTVYLRMSSLKPEDTAVYYCNYRRITPWEASGNYWGQGTQVTVSS
notes: VHH in bacterial supernatant
B11: 4D5 VHH (VHH)
VHH: VDSGGGAVKAGDSLRLVCSAPGRTHGRAFNEYAMAWFRQGPGKERESVAAISSDGRFTYYAASVKGRFTISKDNAKSAAFLQMNSLKPEDTAVYYCAARDSGSGYYSRAQWYDYWGQGTQVTVSS
notes: VHH in bacterial supernatant
B12: 3H7 VHH (VHH)
VHH: QVKLEESGGGLVQAGGSLRLSCAASGSILSAGVMRWYRQAPGKQRELVASIALDGSTGYYIDSVKGRFTISRDNAKNIVYLDMRSLEPADTAVYLCNANIRTDMRSAPFDHWGHGTQVTVSS
notes: VHH in bacterial supernatant
B13: 4B5 VHH (VHH)
VHH: QVKLEESGGRSVLAGGSLRLRCAGTPRTFSTFHIGWFRQAPGKEREFVAAFNWSGGRTYYADSVKGRFTISRNNGKNMVYLQMTSLTPEDTGLYYCAAARDRGLHDGTTSDSYLEGSHEYEYWGQGTQVTVSS
notes: VHH in bacterial supernatant
B14: 12H7 VHH (VHH)
VHH: QVQLVDSGGGLVQAGGSLRLSCKVSGNFLSVSDMSWYRQAPGMERDVVATVTEHGRTTYTDSVKGRFTISRDNAEHTTYLEMNNLKPEDTAVYFCKASDVFTDAGAHEAVLIRDYWGQGTQVTVSS
notes: VHH in bacterial supernatant
B15: 1A10 VHH (VHH)
VHH: QVQLVESGGGVVQPGRSLRLSCAASGNSFSSYPMGWFRQAPGKERESVAAISSDGRFSYYADSVKGRFTISRDNSKNTLYLQMNSLRAEDTAVYYCACRDSGSGYYSRAQWYDYWGQGTLVTVSS
notes: VHH in bacterial supernatant
B16: 2A5 VHH (VHH)
VHH: B15 VHH with N27P, D54V, S58T, C98A, A109W
notes: VHH in bacterial supernatant
B17: 6D12 VHH (VHH)
VHH: B15 VHH with N27P, S31T, R56V, S58T, C98A, A109E
notes: VHH in bacterial supernatant
B18: 2C5 VHH (VHH)
VHH: B15 VHH with N27P, S31T, D54Q, S58T, C98A
notes: VHH in bacterial supernatant
B19: 1D11 VHH (VHH)
VHH: B15 VHH with N27P, Y32S, D54M, S58T, C98A
notes: VHH in bacterial supernatant
B20: 5G10 VHH (VHH)
VHH: B15 VHH with N27P, S28R, S58T, C98A, Y114G
notes: VHH in bacterial supernatant
B21: 5E8 VHH (VHH)
VHH: B15 VHH with N27P, I51Q, S58T, C98A
notes: VHH in bacterial supernatant
B22: 6E9 VHH (VHH)
VHH: B15 VHH with N27P, F29R, R56K, S58T, C98A, Q110N
notes: VHH in bacterial supernatant
B23: 1C7 VHH (VHH)
VHH: B15 VHH with N27P, D54R, S58T, C98A, D100G
notes: VHH in bacterial supernatant
B24: 5B5 VHH (VHH)
VHH: B15 VHH with N27P, G55T, S58T, C98A, Y114R
notes: VHH in bacterial supernatant
B25: 2A6 VHH (VHH)
VHH: B15 VHH with N27P, S31L, G55R, S58T, C98A
notes: VHH in bacterial supernatant
B26: 6D8 VHH (VHH)
VHH: B15 VHH with N27P, Y32K, I51R, S58T, C98A, Y105R
notes: VHH in bacterial supernatant
B27: 6B11 VHH (VHH)
VHH: B15 VHH with N27P, S30P, D54R, S58T, C98A, A109L
notes: VHH in bacterial supernatant
B28: 7B11 VHH (VHH)
VHH: B15 VHH with N27P, S30L, S31I, S58W, C98A, A109V
notes: VHH in bacterial supernatant
B29: 2D5 VHH (VHH)
VHH: B15 VHH with N27P, Y32S, S53W, S58T, C98A, D113V
notes: VHH in bacterial supernatant

Molecular target: T1, recombinant human TIGIT extra cellular …
Experiment: blocking ELISA, PVR as competitor

Row | inhibition of PVR binding to h-TIGIT [%] | Binder
1 | > 90 | B1
2 | > 90 | B2
3 | > 90 | B3

Molecular target: T1, recombinant human TIGIT extra cellular …
Experiment: ELISA, VHH in supernatant on h-TIGIT ECD coated plates

Row | binding result | Binder
4 | binds | B4
5 | binds | B5
6 | binds | B6
7 | binds | B7
8 | binds | B8
9 | binds | B9
10 | binds | B10
11 | binds | B11
12 | binds | B12
13 | binds | B13
14 | binds | B14

Molecular target: T1, recombinant human TIGIT extra cellular …
Experiment: PVR blocking ELISA (PVR binding to h-TIGIT blocked by the clone); scatter of IC50 against EC50, nM per the legend

Row | binding result | Binder
15 | binds | B15
16 | binds | B16
17 | binds | B17
18 | binds | B18
19 | binds | B19
20 | binds | B20
21 | binds | B21
22 | binds | B22
23 | binds | B23
24 | binds | B24
25 | binds | B25
26 | binds | B26
27 | binds | B27
28 | binds | B28
29 | binds | B29

Molecular target: T2, human TIGIT stably expressed on cells …
Experiment: whole cell binding on TIGIT stable cells (species not named in the legend, taken as human); scatter of EC50 against IC50, nM per the legend

Row | binding result | Binder
30 | binds | B15
31 | binds | B16
32 | binds | B17
33 | binds | B18
34 | binds | B19
35 | binds | B20
36 | binds | B21
37 | binds | B22
38 | binds | B23
39 | binds | B24
40 | binds | B25
41 | binds | B26
42 | binds | B27
43 | binds | B28
44 | binds | B29
